From patent publication US20100260763A1 (DOMANTIS, published 2010)

Legend:
[1] = molecular target: T1, human TNFR1, soluble recombinant protein (human, UniProt P19438 22-211, limits assumed, biotinylated in the BIAcore assays (coupling via primary amines)); test: phage ELISA, plate coated with 1 nM TNFR1, anti-M13-HRP; trypsin 10 µg/ml 1 h room temp; phage input 3.52E+08
T1 construct: also called biotinylated TNFR1; human recombinant E. coli-expressed human TNFR1
T1 sequence (looked up): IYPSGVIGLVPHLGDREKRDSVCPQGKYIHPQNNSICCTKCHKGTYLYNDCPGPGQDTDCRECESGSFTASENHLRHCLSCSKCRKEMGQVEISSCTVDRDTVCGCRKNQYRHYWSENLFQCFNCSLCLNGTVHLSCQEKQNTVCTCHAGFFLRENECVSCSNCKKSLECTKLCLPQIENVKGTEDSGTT

[2] = molecular target: T1, human TNFR1, soluble recombinant protein; test: phage ELISA, plate coated with 1 nM TNFR1, anti-M13-HRP; trypsin 1 mg/ml 1 h room temp; phage input 7.05E+08
[3] = molecular target: T1, human TNFR1, soluble recombinant protein; test: phage ELISA, plate coated with 1 nM TNFR1, anti-M13-HRP; trypsin 100 µg/ml 1 h room temp; phage input 7.05E+08
[4] = molecular target: T1, human TNFR1, soluble recombinant protein; test: phage ELISA, plate coated with 1 nM TNFR1, anti-M13-HRP; trypsin 10 µg/ml 1 h room temp; phage input 5.64E+09
[5] = molecular target: T1, human TNFR1, soluble recombinant protein; test: phage ELISA, plate coated with 1 nM TNFR1, anti-M13-HRP; trypsin 1 mg/ml 1 h room temp; phage input 1.13E+10
[6] = molecular target: T1, human TNFR1, soluble recombinant protein; test: phage ELISA, plate coated with 1 nM TNFR1, anti-M13-HRP; trypsin 100 µg/ml 1 h room temp; phage input 2.26E+10
[7] = molecular target: T1, human TNFR1, soluble recombinant protein; test: phage ELISA, plate coated with 1 nM TNFR1, anti-M13-HRP; trypsin 0 µg/ml; phage input 1.41E+09
[8] = molecular target: T1, human TNFR1, soluble recombinant protein; test: phage ELISA, plate coated with 1 nM TNFR1, anti-M13-HRP; trypsin 100 µg/ml 1 h room temp; phage input 3.52E+08
[9] = molecular target: T1, human TNFR1, soluble recombinant protein; test: phage ELISA, plate coated with 1 nM TNFR1, anti-M13-HRP; trypsin 100 µg/ml 1 h room temp; phage input 5.64E+09
[10] = molecular target: T1, human TNFR1, soluble recombinant protein; test: phage ELISA, plate coated with 1 nM TNFR1, anti-M13-HRP; trypsin 10 µg/ml 1 h room temp; phage input 2.82E+09
[11] = molecular target: T1, human TNFR1, soluble recombinant protein; test: phage ELISA, plate coated with 1 nM TNFR1, anti-M13-HRP; trypsin 10 µg/ml 1 h room temp; phage input 1.41E+09
[12] = molecular target: T1, human TNFR1, soluble recombinant protein; test: phage ELISA, plate coated with 1 nM TNFR1, anti-M13-HRP; trypsin 100 µg/ml 1 h room temp; phage input 1.41E+09
[13] = molecular target: T1, human TNFR1, soluble recombinant protein; test: phage ELISA, plate coated with 1 nM TNFR1, anti-M13-HRP; trypsin 10 µg/ml 1 h room temp; phage input 7.05E+08
[14] = molecular target: T1, human TNFR1, soluble recombinant protein; test: phage ELISA, plate coated with 1 nM TNFR1, anti-M13-HRP; trypsin 100 µg/ml 1 h room temp; phage input 2.82E+09
[15] = molecular target: T1, human TNFR1, soluble recombinant protein; test: phage ELISA, plate coated with 1 nM TNFR1, anti-M13-HRP; trypsin 10 µg/ml 1 h room temp; phage input 2.26E+10
[16] = molecular target: T1, human TNFR1, soluble recombinant protein; test: phage ELISA, plate coated with 1 nM TNFR1, anti-M13-HRP; trypsin 10 µg/ml 1 h room temp; phage input 1.13E+10
[17] = molecular target: T1, human TNFR1, soluble recombinant protein; test: phage ELISA, plate coated with 1 nM TNFR1, anti-M13-HRP; trypsin 1 mg/ml 1 h room temp; phage input 2.26E+10
[18] = molecular target: T1, human TNFR1, soluble recombinant protein; test: phage ELISA, plate coated with 1 nM TNFR1, anti-M13-HRP; trypsin 1 mg/ml 1 h room temp; phage input 2.82E+09
[19] = molecular target: T1, human TNFR1, soluble recombinant protein; test: phage ELISA, plate coated with 1 nM TNFR1, anti-M13-HRP; trypsin 10 µg/ml 1 h room temp; phage input 4.51E+10

DOM1h-131 displayed on phage
phage ELISA read-out [1]: 0.213 | phage ELISA read-out [2]: 0.084 | phage ELISA read-out [3]: 0.084 | phage ELISA read-out [4]: 0.695 | phage ELISA read-out [5]: 0.183 | phage ELISA read-out [6]: 0.377 | phage ELISA read-out [7]: 0.85 | phage ELISA read-out [8]: 0.084 | phage ELISA read-out [9]: 0.196 | phage ELISA read-out [10]: 0.573 | phage ELISA read-out [11]: 0.409 | phage ELISA read-out [12]: 0.115 | phage ELISA read-out [13]: 0.286 | phage ELISA read-out [14]: 0.141 | phage ELISA read-out [15]: 0.802 | phage ELISA read-out [16]: 0.86 | phage ELISA read-out [17]: 0.229 | phage ELISA read-out [18]: 0.114 | phage ELISA read-out [19]: 0.784
